Assays:
[1] = target: sc16a_human SEC16A (UniProt O15027)
[2] = target: sc16a_mouse Sec16a (UniProt E9QAT4)
Sequence of UniProt E9QAT4 (E9QAT4 whole entry): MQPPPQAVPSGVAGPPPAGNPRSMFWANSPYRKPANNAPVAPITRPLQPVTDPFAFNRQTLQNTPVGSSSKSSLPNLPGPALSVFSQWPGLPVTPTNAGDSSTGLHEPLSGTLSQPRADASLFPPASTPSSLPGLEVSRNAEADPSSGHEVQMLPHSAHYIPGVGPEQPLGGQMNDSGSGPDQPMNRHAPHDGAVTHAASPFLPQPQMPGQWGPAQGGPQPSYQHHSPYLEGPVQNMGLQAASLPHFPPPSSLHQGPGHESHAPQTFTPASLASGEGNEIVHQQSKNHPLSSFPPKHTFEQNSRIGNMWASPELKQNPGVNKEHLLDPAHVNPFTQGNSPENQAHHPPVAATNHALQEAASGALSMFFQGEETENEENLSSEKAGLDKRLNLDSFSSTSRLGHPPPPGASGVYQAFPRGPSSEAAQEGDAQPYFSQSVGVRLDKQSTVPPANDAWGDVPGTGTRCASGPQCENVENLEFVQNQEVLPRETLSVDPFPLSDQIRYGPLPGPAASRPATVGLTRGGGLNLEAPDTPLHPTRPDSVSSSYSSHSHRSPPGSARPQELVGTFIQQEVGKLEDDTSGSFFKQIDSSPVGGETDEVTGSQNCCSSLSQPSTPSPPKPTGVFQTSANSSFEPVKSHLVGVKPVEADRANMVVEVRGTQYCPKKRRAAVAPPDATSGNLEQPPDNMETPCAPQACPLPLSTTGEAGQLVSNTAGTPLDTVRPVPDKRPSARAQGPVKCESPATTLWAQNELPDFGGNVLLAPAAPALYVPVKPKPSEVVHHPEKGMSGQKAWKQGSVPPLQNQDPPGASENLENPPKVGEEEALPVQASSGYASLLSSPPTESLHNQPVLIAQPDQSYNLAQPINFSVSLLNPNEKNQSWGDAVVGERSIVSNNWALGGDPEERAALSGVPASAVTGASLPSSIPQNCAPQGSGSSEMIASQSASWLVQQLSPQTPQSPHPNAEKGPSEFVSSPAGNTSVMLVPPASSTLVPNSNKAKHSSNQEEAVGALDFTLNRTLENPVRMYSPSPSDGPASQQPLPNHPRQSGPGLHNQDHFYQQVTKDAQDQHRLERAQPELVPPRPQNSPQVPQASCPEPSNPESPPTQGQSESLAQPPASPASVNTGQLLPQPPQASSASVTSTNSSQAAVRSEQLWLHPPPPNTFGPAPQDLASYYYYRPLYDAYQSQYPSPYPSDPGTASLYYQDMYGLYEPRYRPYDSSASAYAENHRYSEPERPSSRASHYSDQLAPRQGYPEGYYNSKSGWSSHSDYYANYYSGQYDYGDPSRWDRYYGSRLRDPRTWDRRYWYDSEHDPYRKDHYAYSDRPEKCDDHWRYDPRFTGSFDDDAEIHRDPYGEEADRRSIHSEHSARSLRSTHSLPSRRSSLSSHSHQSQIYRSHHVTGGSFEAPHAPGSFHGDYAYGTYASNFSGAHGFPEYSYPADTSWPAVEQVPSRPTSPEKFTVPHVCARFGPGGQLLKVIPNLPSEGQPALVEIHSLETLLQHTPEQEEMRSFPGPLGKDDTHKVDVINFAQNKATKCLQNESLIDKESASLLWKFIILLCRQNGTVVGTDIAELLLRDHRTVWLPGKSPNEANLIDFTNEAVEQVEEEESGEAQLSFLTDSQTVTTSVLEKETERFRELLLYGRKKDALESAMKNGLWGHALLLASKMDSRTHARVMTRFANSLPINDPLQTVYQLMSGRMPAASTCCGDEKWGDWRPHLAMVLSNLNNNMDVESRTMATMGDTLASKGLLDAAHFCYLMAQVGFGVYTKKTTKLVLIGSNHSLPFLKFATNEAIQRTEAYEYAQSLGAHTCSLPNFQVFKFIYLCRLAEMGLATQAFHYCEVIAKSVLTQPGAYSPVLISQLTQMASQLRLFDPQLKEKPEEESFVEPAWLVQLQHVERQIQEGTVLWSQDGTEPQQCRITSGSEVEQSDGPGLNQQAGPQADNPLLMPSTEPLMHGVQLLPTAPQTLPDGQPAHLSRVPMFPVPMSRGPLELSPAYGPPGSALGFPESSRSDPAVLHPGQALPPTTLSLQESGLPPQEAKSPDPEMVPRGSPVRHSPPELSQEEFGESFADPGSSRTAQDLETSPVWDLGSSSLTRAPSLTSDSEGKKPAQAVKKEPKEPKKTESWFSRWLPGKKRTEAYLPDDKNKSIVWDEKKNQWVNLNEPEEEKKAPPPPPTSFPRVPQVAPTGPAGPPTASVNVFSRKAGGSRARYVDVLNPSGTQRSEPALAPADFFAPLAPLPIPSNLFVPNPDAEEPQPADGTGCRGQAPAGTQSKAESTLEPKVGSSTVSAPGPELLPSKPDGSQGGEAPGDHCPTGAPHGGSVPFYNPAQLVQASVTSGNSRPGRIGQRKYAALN

Sequence of UniProt O15027 (O15027 whole entry): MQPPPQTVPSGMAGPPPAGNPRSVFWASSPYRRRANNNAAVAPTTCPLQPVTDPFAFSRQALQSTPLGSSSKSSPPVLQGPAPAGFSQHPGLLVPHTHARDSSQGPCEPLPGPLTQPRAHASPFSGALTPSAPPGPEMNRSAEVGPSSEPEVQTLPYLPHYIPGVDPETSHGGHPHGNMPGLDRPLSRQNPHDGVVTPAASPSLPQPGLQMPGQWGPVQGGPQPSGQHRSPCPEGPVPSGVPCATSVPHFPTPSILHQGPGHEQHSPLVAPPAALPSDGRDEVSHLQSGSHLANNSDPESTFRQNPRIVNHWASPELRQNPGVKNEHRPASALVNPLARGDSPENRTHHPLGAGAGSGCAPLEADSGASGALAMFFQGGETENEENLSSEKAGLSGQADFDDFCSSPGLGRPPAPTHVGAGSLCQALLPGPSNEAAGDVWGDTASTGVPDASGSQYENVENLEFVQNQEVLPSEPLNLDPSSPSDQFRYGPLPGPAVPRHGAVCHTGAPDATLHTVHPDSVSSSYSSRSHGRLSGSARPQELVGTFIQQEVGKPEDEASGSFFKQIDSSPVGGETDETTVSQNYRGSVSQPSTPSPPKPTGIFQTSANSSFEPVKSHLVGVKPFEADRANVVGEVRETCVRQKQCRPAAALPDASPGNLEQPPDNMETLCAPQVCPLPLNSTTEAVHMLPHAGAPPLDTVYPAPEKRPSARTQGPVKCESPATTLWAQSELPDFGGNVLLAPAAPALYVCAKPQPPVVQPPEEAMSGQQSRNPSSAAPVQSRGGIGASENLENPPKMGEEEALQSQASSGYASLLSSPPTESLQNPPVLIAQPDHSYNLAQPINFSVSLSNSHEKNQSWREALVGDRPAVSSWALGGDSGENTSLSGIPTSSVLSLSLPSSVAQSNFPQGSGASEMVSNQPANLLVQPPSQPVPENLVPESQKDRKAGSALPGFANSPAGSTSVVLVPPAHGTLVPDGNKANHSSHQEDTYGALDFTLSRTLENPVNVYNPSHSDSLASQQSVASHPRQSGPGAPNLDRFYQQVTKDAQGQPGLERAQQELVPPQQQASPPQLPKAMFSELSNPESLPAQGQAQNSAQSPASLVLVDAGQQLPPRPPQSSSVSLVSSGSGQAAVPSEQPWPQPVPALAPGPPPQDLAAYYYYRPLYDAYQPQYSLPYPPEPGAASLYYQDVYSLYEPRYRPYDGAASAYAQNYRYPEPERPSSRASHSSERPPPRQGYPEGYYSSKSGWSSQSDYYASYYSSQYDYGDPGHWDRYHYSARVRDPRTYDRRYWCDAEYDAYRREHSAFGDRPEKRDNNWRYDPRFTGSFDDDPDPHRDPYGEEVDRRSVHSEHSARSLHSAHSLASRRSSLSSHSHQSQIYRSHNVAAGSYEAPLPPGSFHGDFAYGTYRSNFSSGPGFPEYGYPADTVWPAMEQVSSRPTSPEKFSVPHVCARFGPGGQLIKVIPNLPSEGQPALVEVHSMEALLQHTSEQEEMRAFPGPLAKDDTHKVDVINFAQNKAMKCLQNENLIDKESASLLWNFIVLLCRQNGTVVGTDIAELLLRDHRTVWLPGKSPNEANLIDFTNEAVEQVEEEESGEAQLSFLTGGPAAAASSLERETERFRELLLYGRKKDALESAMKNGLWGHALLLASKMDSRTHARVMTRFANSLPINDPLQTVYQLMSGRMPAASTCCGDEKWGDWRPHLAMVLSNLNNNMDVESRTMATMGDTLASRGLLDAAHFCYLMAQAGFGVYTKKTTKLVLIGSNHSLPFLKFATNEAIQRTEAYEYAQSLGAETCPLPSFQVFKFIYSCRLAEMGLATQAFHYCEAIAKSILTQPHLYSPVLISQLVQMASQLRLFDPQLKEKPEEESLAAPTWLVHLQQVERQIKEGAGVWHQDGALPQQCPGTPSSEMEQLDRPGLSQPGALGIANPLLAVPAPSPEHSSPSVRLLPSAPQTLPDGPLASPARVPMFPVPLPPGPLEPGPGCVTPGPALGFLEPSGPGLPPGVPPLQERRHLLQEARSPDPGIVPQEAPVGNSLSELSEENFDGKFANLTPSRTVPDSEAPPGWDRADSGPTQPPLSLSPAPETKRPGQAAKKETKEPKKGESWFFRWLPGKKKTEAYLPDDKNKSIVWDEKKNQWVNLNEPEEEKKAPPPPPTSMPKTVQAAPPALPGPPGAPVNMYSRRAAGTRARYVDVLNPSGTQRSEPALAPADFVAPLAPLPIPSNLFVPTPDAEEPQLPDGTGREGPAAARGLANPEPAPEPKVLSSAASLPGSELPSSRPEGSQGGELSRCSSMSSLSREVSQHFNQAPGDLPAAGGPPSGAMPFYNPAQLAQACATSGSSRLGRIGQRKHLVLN

effect of a mutation on the interaction [1] | effect of a mutation on the interaction [2] | Substance
disrupting interaction strength | disrupting interaction strength | Leucine-rich repeat serine/threonine-protein kinase 2 (Homo sapiens), Q5S007 K1347A
decreasing interaction strength | disrupting interaction strength | Leucine-rich repeat serine/threonine-protein kinase 2 (Homo sapiens), Q5S007 R1441C
